Assay [1] addresses T1, FcgammaRIIIa (V158) expressed on Jurkat effector cells (UniProt P08637 17-254, limits assumed).
T1 construct: whole, on cells; also called FcγRIII; Fc receptor of the effector cells
Description: cell based ADCC reporter gene assay, Jurkat FcgammaRIIIa (V158) effector cells with CHO IL1R3 target cells. The protocol: The anti-IL-1R3 antibody in IgG1-LALA and IgG4-P-FALA format was tested for any ADCC activity using a reporter gene assay (iLite ADCC Bioassay #BM5001, SVAR Life Sciences, Malmö). This assay uses reporter-gene-carrying effector cells (Jurkat cells expression FcgammaRIIIa (V158)) that are used in conjunction with target cells that express the specific antigen at constant high levels (i.e. CHO ILIR3 target cells). Binding of the antibody to the target cell and binding of the effector cell to the Fc receptor of the antibody results in expression of the firefly luciferase reporter gene in the effector cell. The promoter of the firefly luciferase in the effector cells includes binding sites for NfkB, AP1, NFAT, CRE and STAT and thus includes the five principal transcription factors of the FcγRIII signal transduction pathway. The effector cells further comprise Renilla luciferase for normalization purposes.
(Reporter assays use an easily measured gene product as a stand-in for the process of interest.)

The target in the next assay is T2, IL-1R3 (human, UniProt Q9NPH3 21-570).
T2 sequence (looked up): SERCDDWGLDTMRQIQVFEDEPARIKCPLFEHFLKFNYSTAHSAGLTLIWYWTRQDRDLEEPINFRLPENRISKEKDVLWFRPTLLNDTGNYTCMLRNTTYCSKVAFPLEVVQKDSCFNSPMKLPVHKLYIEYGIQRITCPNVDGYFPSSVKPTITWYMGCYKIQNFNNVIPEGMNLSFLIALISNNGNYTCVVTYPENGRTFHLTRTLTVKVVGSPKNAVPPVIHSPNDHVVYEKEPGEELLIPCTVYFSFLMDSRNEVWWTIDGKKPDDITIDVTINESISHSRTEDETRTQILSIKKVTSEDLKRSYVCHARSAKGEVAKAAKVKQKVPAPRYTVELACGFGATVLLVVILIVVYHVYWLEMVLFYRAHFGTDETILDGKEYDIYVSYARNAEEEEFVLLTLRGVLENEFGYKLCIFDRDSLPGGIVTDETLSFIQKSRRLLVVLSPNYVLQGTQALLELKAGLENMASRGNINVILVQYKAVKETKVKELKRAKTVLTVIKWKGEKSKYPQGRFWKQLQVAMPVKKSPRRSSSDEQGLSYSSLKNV
The assay can be described thus: cell-based or functional assay.

Results on one molecule are retold here after patent publication US20250019452A1 (Sanofi, published 2025).

B1: anti-IL-1R3-IgG4-P-FALA (antibody)
heavy: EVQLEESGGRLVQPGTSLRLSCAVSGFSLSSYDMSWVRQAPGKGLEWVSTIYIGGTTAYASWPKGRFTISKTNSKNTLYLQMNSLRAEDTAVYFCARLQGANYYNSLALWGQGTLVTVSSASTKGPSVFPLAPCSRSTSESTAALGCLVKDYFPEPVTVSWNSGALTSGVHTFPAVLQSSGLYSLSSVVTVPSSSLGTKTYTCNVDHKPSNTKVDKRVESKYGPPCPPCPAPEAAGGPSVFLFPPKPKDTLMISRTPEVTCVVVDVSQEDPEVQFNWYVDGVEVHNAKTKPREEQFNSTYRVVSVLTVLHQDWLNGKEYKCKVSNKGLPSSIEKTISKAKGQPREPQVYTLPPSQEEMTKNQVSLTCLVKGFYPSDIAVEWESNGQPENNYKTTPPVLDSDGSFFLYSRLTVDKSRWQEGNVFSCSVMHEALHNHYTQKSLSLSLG
light: DVQMTQSPSSLSASVGDRVTITCQASQSIYSFLSWYQQKPGQAPKLLIYAASDLESGVPSRFSGSGSGTDFTLTISSLQPEDFATYYCQSNYIIDYGAFGQGTKVVIKRTVAAPSVFIFPPSDEQLKSGTASVVCLLNNFYPREAKVQWKVDNALQSGNSQESVTEQDSKDSTYSLSSTLTLSKADYEKHKVYACEVTHQGLSSPVTKSFNRGEC
notes: Humanized antibody, human IgG4 backbone with S228P, F234A, L235A (EU) in the Fc region; also called anti-IL-1R3 IgG4-P-FALA Ab; aIL-1R3-IgG4; copies: 2 + 2
As to B1, the binding result in assay [1] is recorded as “no binding”. For the same molecule, in the assay with IL-1R3, the “IL8 release_hIL1b & hIL33 & IL36g, rel IC50 in nM” value was 8.5 nM; the “IL8 release_hIL1b & hIL36g, rel IC50 in nM” value was found to be 2.38 nM; the “IL8 release_hIL1 beta, rel IC50 in nM” value worked out at 13.4 nM; the “IL8 release_hIL33, rel IC50 in nM” value turned out to be 2.34 nM. In addition, in the assay with IL-1R3, the “IL8 release_hIL36g, rel IC50 in nM” value was determined as 0.45 nM.
